# T1: monkey PD-1 with mFc (monkey)
# T1 construct: also called monkey PD-1-mFc; monkey PD-1 dimer
# T1 chain: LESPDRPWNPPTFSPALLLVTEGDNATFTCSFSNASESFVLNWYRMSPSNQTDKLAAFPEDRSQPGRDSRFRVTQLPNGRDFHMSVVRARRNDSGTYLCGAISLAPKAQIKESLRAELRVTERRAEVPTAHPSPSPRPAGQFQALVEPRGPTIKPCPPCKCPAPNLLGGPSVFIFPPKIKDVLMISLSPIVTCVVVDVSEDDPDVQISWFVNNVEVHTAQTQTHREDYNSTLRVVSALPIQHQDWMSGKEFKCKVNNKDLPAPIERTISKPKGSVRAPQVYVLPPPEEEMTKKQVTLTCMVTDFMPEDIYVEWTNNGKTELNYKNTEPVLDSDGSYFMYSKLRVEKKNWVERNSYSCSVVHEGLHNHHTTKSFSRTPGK
# B1: H2aM7796N (antibody, V domains shown)
# VH: QVQLVESGGGVVQPGRSLRLSCAASGFTFSSYGMHWVRQAPGKGLEWVAIIWSDGDSEYNLDSVKGRFTISRDNSKNTLYLQMNSLRVEDSAVYYCARDRDLEDIWGQGTMVTVSS
# VL: DIQMTQSPSSLSASVGDRVTITCRASQGIRNDLGWYQQKPGKAPKRLIYAASNLQSGVPSRFSGSGSGTEFTLTISSLQPEDFATYYCLQHNSYPLTFGGGTKVEIK
# notes: human variable regions, mouse IgG2a Fc; also called H2M7796N
# B2: H2aM7798N (antibody, V domains shown)
# VH: EVQLLESGGVLVQPGGSLRLSCAASGFTFSNFGMTWVRQAPGKGLEWVSGISGGGRDTYFADSVKGRFTISRDNSKNTLYLQMNSLKGEDTAVYYCVKWGNIYFDYWGQGTLVTVSS
# VL: DIQMTQSPSSLSASVGDSITITCRASLSINTFLNWYQQKPGKAPNLLIYAASSLHGGVPSRFSGSGSGTDFTLTIRTLQPEDFATYYCQQSSNTPFTFGPGTVVDFR
# notes: human variable regions, mouse IgG2a Fc; also called H2M7798N
# B3: H4xH9034P (antibody, V domains shown)
# VH: EVQLVESGGGVVRPGGSLRLSCTASGFTFDDYGMSWVRQAPGKGLEWISGIGWTGGRSSYADSVRGRFTISRDNAKNSLYLQMNSLGAEDTALYYCARDRQWLVQWYFDYWGQGTLVTVSS
# VL: not shown
# notes: human IgG4 Fc with 2 or more amino acid changes (US20100331527); also called H4xH9034P2
# B4: H4xH9119P2 (antibody, V domains shown)
# VH: EVQLVESGGGLVQPGRSLRLSCAASGFTFEDYAMHWVRQAPGKGLEWVSGIGWSNVKIGYADSVKGRFTISRDNVRNSLYLQMNSLRTEDTAFYYCVKAYTSMLTLYFDYWGQGTLVTVSS
# VL: not shown
# notes: human IgG4 Fc with 2 or more amino acid changes (US20100331527)
# B5: H4xH9035P (antibody, V domains shown)
# VH: EVQLVESGGRVVRPGGSLRLSCAASGFTFDDYGMSWVRQLPGKGLEWVAGISWNDGKTVYAESVKGRFIISRDNAKNSLHLEMNSLRAEDTALYYCARDWQYLIDRYFDFWGQGTLVTVSS
# VL: not shown
# notes: human IgG4 Fc with 2 or more amino acid changes (US20100331527); also called H4xH9035P2
# B6: H4xH9119P2 (antibody, human IgG4, V domains shown)
# VH: B4 VH
# VL: not shown
# notes: H4xH: modified human IgG4 Fc
# B7: H4xH9048P2 (antibody, V domains shown)
# VH: QVQLVQSGAEVKRPGSSVKVSCKVSGVTFRNFAIIWVRQAPGQGLEWMGGIIPFFSAANYAQSFQGRVTITPDESTSTAFMELASLRSEDTAVYYCAREGERGHTYGFDYWGQGTLVTVSS
# VL: not shown
# notes: as for B4
# B8: H4H9008P (antibody, human IgG4 S228P, kappa, V domains shown)
# VH: EVQLVESGGGLVRPGGSLRLSCAASGFTFSTYAMAWVRQTPGKGLEGVSAIGGSGDSTYYVDSVKGRFTISRDNSKSTLFLQMNSLRAEDTAVYYCVKVRNYDGSFDIWGQGTMVTVSS
# VL: not shown
# B9: H4H9048P2 (antibody, human IgG4 S228P, kappa, V domains shown)
# VH: B7 VH
# VL: not shown
# notes: human IgG4 Fc
# Biological target: T2, dimeric biotinylated human PD-1 protein with a C-terminal human Fc tag (human, biotinylated (sites not given))
# T2 construct: also called biot-hPD-1-hFc
# Assay: competition ELISA: 200 pM biot-hPD-1-hFc to coated hPD-L1-mFc
Binder,% blocking at 50 nM antibody [%],IC50 [nM]
B1,60,1.3
B2,100,–
B3,96,–
B4,96,–
B5,95,–

# Biological target: T3, recombinant human PD-1 expressed with a C-terminal myc-myc-hexahistidine tag (human)
# T3 construct: also called hPD-1-MMH; human PD-1-MMH
# Assay: SPR (Biacore), mAb captured, hPD-1-MMH injected, 25 C;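 note: rate constants obtained by fitting sensorgrams to a 1:1 binding model, KD derived as kd/ka and half-life as ln2/(60·kd) in minutes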
Binder,Kd [nM],koff [s⁻¹],kon [M⁻¹ s⁻¹],t½ [min]
B6,15.6,0.00122,78400,9.5

# Biological target: T4, recombinant human PD-L1 expressed with a C-terminal mouse IgG2a Fc tag (human)
# T4 construct: also called hPD-L1-mFc; hPD-L1.mFc
# Assay: SPR Biacore 3000: 500 nM mAb alone (no hPD-1.hFc) over captured hPD-L1.mFc surface, control
row,Binder,500 nM of anti-PD-1 monoclonal antibody (RU)
1,B3,-4
2,B4,-5
3,B5,-3

# Biological target: T5, full length human PD-1 on HEK293/hPD-1 cells (human, UniProt Q15116 25-288)
# Assay: FACS, 100 nM mAb
row,Binder,ratio of MFI HEK293/hPD-1 to HEK293 parental cells
1,B1,168
2,B2,78.1
3,B3,69
4,B4,84
5,B7,70.8
6,B5,91.7

# Biological target: T2, dimeric biotinylated human PD-1 protein …
# Assay: competition ELISA: 200 pM biot-hPD-1-hFc to coated hPD-L1-mFc; * below theoretical bottom 1.0E-10 M
row,Binder,IC50 [nM]
1,B2,0.073
2,B3,0.066
3,B4,0.082
4,B5,0.08

# Biological target: T5, full length human PD-1 on HEK293/hPD-1 …
# Assay: FACS dose response, HEK293/hPD-1 cells
Binder,EC50 [nM],Max Geom. Mean MFI @ 100 nM [MFI]
B2,0.0698,20900
B3,0.209,32400
B4,0.348,37800
B7,0.668,33700
B5,0.115,28700

# Biological target: T6, recombinant human PD-1 expressed with a C-terminal human IgG1 Fc tag (human)
# T6 construct: also called hPD-1-hFc; hPD1-hFc
# Assay: SPR Biacore 3000: 100 nM hPD-1.hFc + 500 nM mAb to captured hPD-L1.mFc;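 note: inhibition study with anti-PD-1 mAbs, SPR responses tracked in real time and read at the close of each step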
Binder,% Blocking [%],binding of the mixture (RU)
B3,105,-5
B4,105,-5
B5,104,-4

# Biological target: PD-1 chimera: extracellular domain of human PD-1 with trans-membrane and cytoplasmic domains of human CD300a, … (human, UniProt Q9UGN4 181-299, limits assumed)
# Assay: cell-based or functional assay
row,Binder,"Emax, AP1-Luc signal at 100 nM antibody (% of signal without anti-PD-1 antibody) [%]"
1,B6,163
2,B8,150

# Biological target: T5, full length human PD-1 on HEK293/hPD-1 …
# Assay: FACS dose response, HEK293/hPD-1 cells
# Remark: another data set of the same source
Binder,EC50 [nM],Max Geom. Mean MFI @ 100 nM [MFI]
B1,4.81,14100
B9,1.6,39800

# Biological target: T7, PD-1 chimera: extracellular domain of human PD-1 with trans-membrane and cytoplasmic domains of human CD300a, … (human, UniProt Q9UGN4 181-299, limits assumed)
# Assay: cell-based or functional assay
row,Binder,Emax mean [%] @ 100 nM [%]
1,B9,134

# Biological target: T8, recombinant human PD-1 dimer expressed with a C-terminal mouse IgG2a Fc tag (human)
# T8 construct: also called hPD-1-mFc
# Assay: competition ELISA: 1.5 nM hPD-1-mFc to coated hPD-L1-hFc
Binder,% blocking at 200 nM antibody [%],IC50 [nM]
B2,93,–
B3,98,–
B4,78,–
B7,67,3.3
B5,99,–

# Biological target: T8, recombinant human PD-1 dimer expressed …
# Assay: BLI Octet: 100 nM hPD-1-mFc + 500 nM mAb to captured hPD-L1-hFc
Binder,% Blocking [%],binding of the mixture (nm)
B1,129,-0.02
B2,86,0.01

# Biological target: T8, recombinant human PD-1 dimer expressed …
# Assay: competition ELISA: 100 pM hPD-1-mFc to coated hPD-L2-hFc
Binder,% blocking at 100 nM antibody [%],IC50 [nM]
B2,100,0.13
B7,98,0.14

# Biological target: T8, recombinant human PD-1 dimer expressed …
# Assay: competition ELISA: 1.5 nM hPD-1-mFc to coated hPD-L1-hFc; * below theoretical bottom 7.5E-10 M
row,Binder,IC50 [nM]
1,B2,0.68
2,B3,0.51
3,B4,0.2
4,B5,0.62

# Biological target: T1, monkey PD-1 with mFc
# Assay: SPR, captured mAb, 37 C;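 note: Real-time Biacore surface plasmon resonance biosensor readout of PD-1 reagent binding to purified anti-PD-1 monoclonal antibodies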
Binder,100 nM Monkey PD-1-mFc Bound (RU),Kd [nM],koff [s⁻¹],kon [M⁻¹ s⁻¹],t1/2 [min]
B3,81,2.44,0.000749,307000,15
B4,40,3.17,0.000885,279000,13
B7,84,2.29,0.00113,494000,10
B5,40,1.7,0.000623,367000,19

# Biological target: T1, monkey PD-1 with mFc
# Assay: SPR, captured mAb, 25 C;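 note: purified anti-PD-1 antibodies tested on Biacore 4000 or T200 instruments, rate constants obtained via 1:1 binding model fit, with KD as kd/ka and half-life as ln2/(60·kd)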
Binder,100 nM Monkey PD-1-mFc Bound (RU),Kd [nM],koff [s⁻¹],kon [M⁻¹ s⁻¹],t1/2 [min]
B3,95,0.818,0.000166,203000,70
B4,83,1.05,0.000172,163000,67
B7,115,0.754,0.000184,243000,63
B5,78,0.46,9.96e-05,216000,116

# Biological target: T5, full length human PD-1 on HEK293/hPD-1 …
# Assay: FACS, 100 nM mAb, HEK293/hPD-1 cells;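 note: antibodies incubated with cells for 15-30 min on ice, bound antibody detected through a secondary F(ab′)2 by flow cytometry, with parental HEK293 cells tested in parallel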
row,Binder,MFI [MFI]
1,B1,49800
2,B2,23400
3,B3,10100
4,B4,9140
5,B7,7200
6,B5,9920

# Biological target: T7, PD-1 chimera: extracellular domain of …
# Assay: cell-based or functional assay
# Remark: another data set of the same source
Binder,Emax mean [%] @ 100 nM [%],Concentration (M) of Antibody at 150% activation [M]
B1,121,–
B2,239,7.99e-10
B3,202,2.62e-09
B4,163,1.11e-08
B7,138,–
B5,227,1.2e-09

# Source: patent publication US20150203579A1 (Regeneron, published 2015)
